Assay results published in publication PMC11952319.

Tests used:
Assay in all cases: BLI
[1] = target: M15 single reverted mutant T57I (light chain residue 57 reverted to the germline residue) (human)
[2] = target: M15 single reverted mutant G51A (light chain residue 51 reverted to the germline residue) (human)
[3] = target: M15 single reverted mutant S32I (light chain residue 32 reverted to the germline residue) (human)
[4] = target: M15 triple mutant with all three light chain mutations (S32I, G51A, T57I) reverted to germline (human)

Substance: SARS-CoV-2 WA1/2020 S2 protein (stabilized prefusion SARS-CoV-2 spike S2 trimer) (from UniProt P0DTC2) (domain or fragment)
- fold decrease in binding affinity compared to M15 [1]: 1.02 fold
- fold decrease in binding affinity compared to M15 [2]: 1.88 fold
- fold decrease in binding affinity compared to M15 [3]: 1.45 fold
- fold decrease in binding affinity compared to M15 [4]: 12 fold
